Source: patent US20230192902A1 (published 2023)
Where two headings read alike, the source gives them in different places.

T1: human ABCG2 (UniProt Q9UNQ0 1-655)
T1 chain: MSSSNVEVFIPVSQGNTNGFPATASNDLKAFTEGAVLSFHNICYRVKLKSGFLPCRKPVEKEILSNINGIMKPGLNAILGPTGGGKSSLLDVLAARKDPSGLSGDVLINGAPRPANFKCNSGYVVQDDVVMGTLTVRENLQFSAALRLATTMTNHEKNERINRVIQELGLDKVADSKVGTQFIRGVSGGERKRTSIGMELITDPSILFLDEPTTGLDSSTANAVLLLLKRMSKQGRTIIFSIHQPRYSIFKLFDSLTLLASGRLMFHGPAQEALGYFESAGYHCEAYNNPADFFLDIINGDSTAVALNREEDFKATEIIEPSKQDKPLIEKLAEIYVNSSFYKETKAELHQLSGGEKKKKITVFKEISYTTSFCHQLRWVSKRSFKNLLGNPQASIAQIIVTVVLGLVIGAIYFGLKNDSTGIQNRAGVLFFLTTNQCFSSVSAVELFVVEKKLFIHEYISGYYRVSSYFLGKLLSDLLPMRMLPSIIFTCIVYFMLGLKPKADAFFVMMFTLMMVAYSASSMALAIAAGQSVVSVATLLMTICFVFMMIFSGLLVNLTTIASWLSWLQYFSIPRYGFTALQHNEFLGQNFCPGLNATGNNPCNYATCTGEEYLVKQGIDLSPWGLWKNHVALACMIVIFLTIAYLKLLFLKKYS


Assays:
human ABCG2 [1] = target: T1, human ABCG2; test: flow cytometry cell binding; 293T-G2OX cells
human ABCG2 [2] = target: T1, human ABCG2; test: flow cytometry cell binding; 293T-G2OX cells
human PD-L1 = human PD-L1 (human, UniProt Q9NZQ7 19-290); test: flow cytometry cell binding; 293T-KT9OX cells
293T-G2KT9OX = test: flow cytometry cell binding; cells expressing both ABCG2 and PD-L1

human PD-L1, sequence (Q9NZQ7 19-290): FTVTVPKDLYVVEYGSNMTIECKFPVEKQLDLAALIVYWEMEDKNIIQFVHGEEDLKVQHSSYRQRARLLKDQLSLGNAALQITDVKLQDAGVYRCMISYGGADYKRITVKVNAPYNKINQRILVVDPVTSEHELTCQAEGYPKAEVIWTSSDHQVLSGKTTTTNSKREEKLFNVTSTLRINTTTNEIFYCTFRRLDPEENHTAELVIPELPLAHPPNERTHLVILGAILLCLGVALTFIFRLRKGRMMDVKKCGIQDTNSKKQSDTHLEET

| EC50 (human ABCG2 [1]) [nM] | Binder | also measured |
| --- | --- | --- |
| 1.5 | anti-ABCG2 antibody 5D3 (antibody, V domains shown) VH: QVQLQESGPGLVKPSQSLSLTCTVTGFSITSDYAWNWIRQFPGKKLEWMGYINFDGGTTYNPSLRGRISITRDTSKNQFFLQLRSVTPEDTATYYCATFYGAKGTLDYWGQGTSVTVSS VL: DIVLTQSPSSFSVSLGDRVTISCKASGYILNRLAWYQQKPGNAPRLLISGATSLETGFPSRFSGTGSGKDYTLSISSLQTEDVGTYYCQQYWSTPWTFGGGTKLEIR |  |
| 2.2 | 5D3hVHv1 5D3hVKv1 (antibody, V domains shown) VH: EVQLQESGPGLVKPSETLSLTCTVSGFSITSDYAWNWIRQPPGKGLEWMGYINFDGGTTYNPSLRGRITISRDTSKNQFSLKLSSVTAADTAVYYCATFYGAKGTLDYWGQGTLVTVSS VL: DIQLTQSPSSLSASVGDRVTITCKASGYILNRLAWYQQKPGKAPKLLISGATSLETGFPSRFSGSGSGKDYTLTISSLQPEDFATYYCQQYWSTPWTFGGGTKLEIK |  |

The remaining lines, values behind:

| Binder | EC50 (human ABCG2 [1]) [nM] | also measured |
| --- | --- | --- |
| 5D3hVH-v1DD KT9KK 5D3hVL-v1 (bispecific antibody, V domains shown) VH 1: EVQLQESGPGLVKPSETLSLTCTVSGFSITSDYAWNWIRQPPGKGLEWMGYINFDGGTTYNPSLRGRITISRDTSKNQFSLKLSSVTAADTAVYYCATFYGAKGTLDYWGQGTLVTVSS VH 2: not shown VL: DIQLTQSPSSLSASVGDRVTITCKASGYILNRLAWYQQKPGKAPKLLISGATSLETGFPSRFSGSGSGKDYTLTISSLQPEDFATYYCQQYWSTPWTFGGGTKLEIK |  | EC50 (human ABCG2 [2]): 7.1 nM; EC50 (human PD-L1): 4.18 nM |
| 5D3hVHv1DD KT9KK 5D3hVKv1 (bispecific antibody, V domains shown) VH 1: EVQLQESGPGLVKPSETLSLTCTVSGFSITSDYAWNWIRQPPGKGLEWMGYINFDGGTTYNPSLRGRITISRDTSKNQFSLKLSSVTAADTAVYYCATFYGAKGTLDYWGQGTLVTVSS VH 2: not shown VL: DIQLTQSPSSLSASVGDRVTITCKASGYILNRLAWYQQKPGKAPKLLISGATSLETGFPSRFSGSGSGKDYTLTISSLQPEDFATYYCQQYWSTPWTFGGGTKLEIK |  | EC50 (293T-G2KT9OX): 10.8 nM |
| 5D3hVHv2 5D3hVKv1 (antibody, V domains shown) VH: EVQLQESGPGLVKPSETLSLTCTVSGFSITSDYAWNWIRQPPGKGLEWIGYINFDGGTTYNPSLRGRVTISRDTSKNQFSLKLSSVTAADTAVYYCATFYGAKGTLDYWGQGTLVTVSS VL: DIQLTQSPSSLSASVGDRVTITCKASGYILNRLAWYQQKPGKAPKLLISGATSLETGFPSRFSGSGSGKDYTLTISSLQPEDFATYYCQQYWSTPWTFGGGTKLEIK | 2.2 |  |
